In patent US20110177003A1 (CENTRE NATIONAL DE LA RECHERCHE SCIENTIFIQUE, published 2011):

Key:
[1] = target: IFP1.2; assay: multiple angle light scattering at 785 nm; self-association (homodimer)
[2] = target: the molecule itself; assay: size exclusion chromatography; self-association (homodimer)

Row | apparent molecular weight [1] | Molecule | binding result [2]
1 | 80 kDa | IFP1.2 | 
2 |  | IFP1.0 (DrCBD, 321 amino acids, with the D207H mutation) (other, biliverdin chromophore covalently incorporated (residue not stated), Engineered bacteriophytochrome fragment, reported as a homodimer; also called DrCBD/D207H; drCBD/D207H) MSRDPLPFFPPLYLGGPEITTENCEREPIHIPGSIQPHGALLTADGHSGEVLQMSLNAATFLGQEPTVLRGQTLAALLPEQWPALQAALPPGCPDALQYRATLDWPAAGHLSLTVHRVGELLILEFEPTEAWDSTGPHALRNAMFALESAPNLRALAEVATQTVRELTGFDRVMLYKFAPDATGEVIAEARREGLHAFLGHRFPASHIPAQARALYTRHLLRLTADTRAAAVPLDPVLNPQTNAPTPLGGAVLRATSPMHMQYLRNMGVGSSLSVSVVVGGQLWGLIACHHQTPYVLPPDLRTTLEYLGRLLSLQVQVKEA | binds
